Here are results for 4 molecules from publication PMC10253590, “The Product of the Fission Yeast fhl1 Gene Binds to the HomolE Box and Activates In Vitro Transcription of Ribosomal Protein Genes”.

Data set [1] has as its target T1, Fhl1 (Schizosaccharomyces pombe, UniProt O14270 1-743).
T1 sequence: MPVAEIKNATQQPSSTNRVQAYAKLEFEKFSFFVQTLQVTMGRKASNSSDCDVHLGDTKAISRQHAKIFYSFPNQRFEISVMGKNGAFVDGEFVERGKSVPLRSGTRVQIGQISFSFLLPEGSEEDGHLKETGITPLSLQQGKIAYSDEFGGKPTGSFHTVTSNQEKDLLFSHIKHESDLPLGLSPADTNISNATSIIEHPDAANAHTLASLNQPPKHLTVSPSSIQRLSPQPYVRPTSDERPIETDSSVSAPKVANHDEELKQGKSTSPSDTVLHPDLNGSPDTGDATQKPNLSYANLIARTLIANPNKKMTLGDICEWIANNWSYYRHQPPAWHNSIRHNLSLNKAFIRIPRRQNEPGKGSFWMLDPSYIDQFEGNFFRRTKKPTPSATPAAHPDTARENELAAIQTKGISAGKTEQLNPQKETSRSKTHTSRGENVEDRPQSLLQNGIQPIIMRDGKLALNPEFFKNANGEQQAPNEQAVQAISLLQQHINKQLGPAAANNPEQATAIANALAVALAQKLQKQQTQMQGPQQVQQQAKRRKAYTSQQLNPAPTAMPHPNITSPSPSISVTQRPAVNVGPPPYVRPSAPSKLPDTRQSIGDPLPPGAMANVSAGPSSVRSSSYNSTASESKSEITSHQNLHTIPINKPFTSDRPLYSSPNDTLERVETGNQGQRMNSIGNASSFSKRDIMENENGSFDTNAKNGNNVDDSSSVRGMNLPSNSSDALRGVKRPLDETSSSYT
The experiment in a line: competition; EMSA; 12.5, 25, 50 ng cold competitor vs N1 probe; 20 mM HEPES pH 7.9, 50 mM KCl, 10 mM MgCl2, 0.1 mM EDTA, 5% glycerol, 5 mM DTT, 0.1 mM PMSF, 5 ug acetylated BSA, 50 ng poly(dG-dC), no PEG; 5 min 25 C then 15. The settings on record: protein: recombinant; tags: His tag (pET15b; Ni-NTA purified). (Mobility shift assays separate free from complexed probe on a gel.)

In data set [2] the target is T1, Fhl1. The data set can be described thus: competition; EMSA; 50 ng cold competitor vs N1 probe; 20 mM HEPES pH 7.9, 50 mM KCl, 10 mM MgCl2, 0.1 mM EDTA, 5% glycerol, 5 mM DTT, 0.1 mM PMSF, 5 ug acetylated BSA, 50 ng poly(dG-dC), no PEG; 5 min 25 C then 15. The settings on record: protein: recombinant; tags: His tag (pET15b; Ni-NTA purified).
For data set [3], the target named is T1, Fhl1. The data set can be described thus: EMSA; 10 ng Fhl1; poly(dG-dC); 20 mM HEPES pH 7.9, 50 mM KCl, 10 mM MgCl2, 0.1 mM EDTA, 5% glycerol, 5 mM DTT, 0.1 mM PMSF, 5 ug acetylated BSA, 50 ng poly(dG-dC), no PEG; 5 min 25 C then 15. The settings on record: protein: recombinant; tags: His tag (pET15b; Ni-NTA purified); label: 32P 5' end.

B1: HE cold competitor (dsDNA)
DNA 1: TTCGTTGAGGGTAGGGTTGC
DNA 2: GCAACCCTACCCTCAACGAA
Regarding B1, the binding result with Fhl1 [1] is reported as “binds”.

B2: mHE cold competitor (dsDNA)
DNA 1: TTCGTTGAGTGTAGTGTTGC
DNA 2: GCAACACTACACTCAACGAA
Regarding B2, the binding result with Fhl1 [2] was “no binding”.

B3: HomolE probe (two tandem HomolE boxes) (dsDNA)
DNA 1: TTCGTTGAGGGTAGGGTTGAGGGTAGGGTTATGC
DNA 2: GCATAACCCTACCCTCAACCCTACCCTCAACGAA
For the molecule B3, the binding result with Fhl1 [3] is on record as “binds”.

B4: HD (HomolD) cold competitor (dsDNA)
DNA 1: TGAAAACAGTCACATTTTAC
DNA 2: GTAAAATGTGACTGTTTTCA
As for B4, in the data set with Fhl1 [2], the binding result is reported as “no binding”.
